Article PMC3010111

Key:
Experiment in all cases: purified protein
[1] = substrate: O=C(O)[C@H](O)[C@H](O)COP(=O)(O)O; settings: 2 mM NAD+, 100 mM Tris–HCl pH 7.5, 25°C, 2 μM PdxA
[2] = substrate: N[C@@H](CCO)C(=O)O; settings: 25°C, 37 nM ThrB
[3] = substrate: N[C@H](C(=O)O)[C@H](O)CO
[4] = substrate: C[C@@H](O)[C@H](N)C(=O)O; settings: 0.1 M Tris–HCl pH 8.0, 25°C, 1.25 μM LtaE
[5] = substrate: C[C@H](O)[C@H](N)C(=O)O; settings: 0.1 M Tris–HCl pH 8.0, 25°C, 62.5 nM LtaE
[6] = substrate: O=C(O)C(=O)COP(=O)(O)O; settings: 50 mM Tris–HCl pH 7.4, 37°C, MalE–YeaB 5.7 μM
[7] = 0.1 M Tris–HCl pH 8.0, 25°C, 1 μM LtaE

B1: PdxA (4-hydroxy-L-threonine dehydrogenase) (Escherichia coli K-12) (protein)
chain: MVKTQRVVITPGEPAGIGPDLVVQLAQREWPVELVVCADATLLTNRAAMLGLPLTLRPYSPNSPAQPQTAGTLTLLPVALRAPVTAGQLAVENGHYVVETLARACDGCLNGEFAALITGPVHKGVINDAGIPFTGHTEFFEERSQAKKVVMMLATEELRVALATTHLPLRDIADAITPALLHEVIAILHHDLRTKFGIAEPRILVCGLNPHAGEGGHMGTEEIDTIIPVLNELRAQGMKLNGPLPADTLFQPKYLDNADAVLAMYHDQGLPVLKYQGFGRGVNITLGLPFIRTSVDHGTALELAGRGKADVGSFITALNLAIKMIVNTQ
[1]
  Km: 150 ± 13 µM
  kcat: 0.020 ± 0.002 s⁻¹

B2: ThrB (homoserine kinase) (Escherichia coli K-12) (protein)
chain: MVKVYAPASSANMSVGFDVLGAAVTPVDGALLGDVVTVEAAETFSLNNLGRFADKLPSEPRENIVYQCWERFCQELGKQIPVAMTLEKNMPIGSGLGSSACSVVAALMAMNEHCGKPLNDTRLLALMGELEGRISGSIHYDNVAPCFLGGMQLMIEENDIISQQVPGFDEWLWVLAYPGIKVSTAEARAILPAQYRRQDCIAHGRHLAGFIHACYSRQPELAAKLMKDVIAEPYRERLLPGFRQARQAVAEIGAVASGISGSGPTLFALCDKPETAQRVADWLGKNYLQNQEGFVHICRLDTAGARVLEN
[2]
  Km: 120 ± 20 µM
  kcat: 46 ± 4 s⁻¹
  kcat/Km: 380000 ± 70000 M⁻¹ s⁻¹
[3]; 25°C, 0.18 μM ThrB
  Km: 2000 ± 100 µM
  kcat: 9.7 ± 0.8 s⁻¹
  kcat/Km: 4800 ± 600 M⁻¹ s⁻¹

B3: LtaE (low-specificity threonine aldolase) (Escherichia coli K-12) (protein)
chain: MIDLRSDTVTRPSRAMLEAMMAAPVGDDVYGDDPTVNALQDYAAELSGKEAAIFLPTGTQANLVALLSHCERGEEYIVGQAAHNYLFEAGGAAVLGSIQPQPIDAAADGTLPLDKVAMKIKPDDIHFARTKLLSLENTHNGKVLPREYLKEAWEFTRERNLALHVDGARIFNAVVAYGCELKEITQYCDSFTICLSKGLGTPVGSLLVGNRDYIKRAIRWRKMTGGGMRQSGILAAAGIYALKNNVARLQEDHDNAAWMAEQLREAGADVMRQDTNMLFVRVGEENAAALGEYMKARNVLINASPIVRLVTHLDVSREQLAEVAAHWRAFLAR
[3]; [7]
  Km: 27 ± 2 µM
  kcat: 1.44 ± 0.03 s⁻¹
  kcat/Km: 53000 ± 4000 M⁻¹ s⁻¹
[4]
  Km: 4000 ± 200 µM
  kcat: 1.1 ± 0.1 s⁻¹
  kcat/Km: 280 ± 20 M⁻¹ s⁻¹
[5]
  Km: 52 ± 4 µM
  kcat: 3.2 ± 0.2 s⁻¹
  kcat/Km: 62000 ± 5000 M⁻¹ s⁻¹

B4: MalE–YeaB (YeaB, also known as NudL) (Escherichia coli K-12) (protein)
chain: MEYRSLTLDDFLSRFQLLRPQINRETLNHRQAAVLIPIVRRPQPGLLLTQRSIHLRKHAGQVAFPGGAVDDTDASAIAAALREAEEEVAIPPSAVEVIGVLPPVDSVTGYQVTPVVGIIPPDLPYRASEDEVSAVFEMPLAQALHLGRYHPLDIYRRGDSHRVWLSWYEQYFVWGMTAGIIRELALQIGVKP
[6]
  kcat: 5.7e-05 ± 7e-06 s⁻¹
  kcat/Km: > 0.028 M⁻¹ s⁻¹
